Here are results for 1 molecule from paper PMC12021056, “MISP Suppresses Ferroptosis via MST1/2 Kinases to Facilitate YAP Activation in Non‐Small Cell Lung Cancer” (Advanced Science, 2025).

The target in one test is T1, His-MST2 (aa279-491) (UniProt Q13188 279-491).
T1 construct: MST2 kinase, amino acids 279-491 (holds the C-terminal SARAH domain); also called SARAH domain of MST2; source: E. coli BL21, purified (Ni-NTA agarose)
T1 sequence (looked up): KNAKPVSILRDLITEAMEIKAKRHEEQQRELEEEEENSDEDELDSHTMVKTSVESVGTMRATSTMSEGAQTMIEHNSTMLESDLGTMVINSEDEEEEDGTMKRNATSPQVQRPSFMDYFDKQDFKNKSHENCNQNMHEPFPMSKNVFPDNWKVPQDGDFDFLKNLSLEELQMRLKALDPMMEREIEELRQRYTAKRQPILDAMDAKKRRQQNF
The test can be described thus: pull-down; 2 µg GST or GST-MISP (aa352-524) incubated with 2 µg His-MST1 (aa301-487) or His-MST2 (aa279-491) for 12 h at 4 °C; SDS-PAGE and Coomassie blue staining. Conditions: both partners purified.

A further test addresses T2, His-MST1 (aa301-487) (UniProt Q13043 301-487).
T2 construct: MST1 kinase, amino acids 301-487 (holds the C-terminal SARAH domain, aa431-487); also called SARAH domain of MST1; source: E. coli BL21, purified (Ni-NTA agarose)
T2 sequence (looked up): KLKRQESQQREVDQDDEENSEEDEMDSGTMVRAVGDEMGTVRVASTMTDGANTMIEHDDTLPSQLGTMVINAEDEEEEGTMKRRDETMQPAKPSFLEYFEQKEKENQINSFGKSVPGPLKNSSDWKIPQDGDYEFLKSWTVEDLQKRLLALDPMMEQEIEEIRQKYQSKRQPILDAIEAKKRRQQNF
The description is as above. The conditions noted are these: both partners purified.

B1: GST-MISP (aa352-524) (domain or fragment, UniProt Q8IVT2 352-524, looked up)
chain: QRDIVQETQREEDHRREGLHVGRASTPDWVSEGPQPGLRRALSSDSILSPAPDARAADPAPEVRKVNRIPPDAYQPYLSPGTPQLEFSAFGAFGKPSSLSTAEAKAATSPKATMSPRHLSESSGKPLSTKQEASKPPRGCPQANRGVVRWEYFRLRPLRFRAPDEPQQAQVPH
notes: source: E. coli BL21, purified (glutathione S-transferase agarose)
Take B1: the binding result with His-MST2 (aa279-491) and with His-MST1 (aa301-487) was “binds” in each case.
